Data published in US20110104715A1 (published 2011).

Experiments:
[1] = target: T1, Wild-type human APP695 (β-amyloid precursor protein) (human, UniProt P05067-4 18-695); test: co-immunoprecipitation with anti-FLAG M2 from co-transfected 293T cells, western blot for APP with 5A3/1G7
T1 construct: also called full-length APP

[2] = target: T2, APPΔC31 (N-terminal 664 amino acids of APP695) (human, UniProt P05067 18-664); test: co-immunoprecipitation (anti-FLAG M2) from co-transfected 293T cells, western blot with 5A3/1G7
T2 construct: Used both for the deletion construct and for the product of caspase cleavage of APP at Asp664; also called APPdeltaC31; C-terminal truncated APP

[3] = target: T1, Wild-type human APP695 (β-amyloid …); test: co-immunoprecipitation with anti-FLAG M2 from co-transfected 293T cells, densitometry of the APP band

Binder	quantitative densitometry intensity of co-immunoprecipitated APP [1]	binding result [2]	intensity relative to the other caspases tested [3] [%]
FLAG-tagged catalytic mutant caspase-7 (C186A) (enzyme, UniProt P55210 1-303, looked up, FLAG tag present; also called C7) MADDQGCIEEQGVEDSANEDSVDAKPDRSSFVPSLFSKKKKNVTMRSIKTTRDRVPTYQYNMNFEKLGKCIIINNKNFDKVTGMGVRNGTDKDAEALFKCFRSLGFDVIVYNDCSCAKMQDLLKKASEEDHTNAACFACILLSHGEENVIYGKDGVTPIKDLTAHFRGDRCKTLLEKPKLFFIQAARGTELDDGIQADSGPINDTDANPRYKIPVEADFLFAYSTVPGYYSWRSPGRGSWFVQALCSILEEHGKDLEIMQILTRVNDRVARHFESQSDDPHFHEKKQIPCVVSMLTKELYFSQ	1		
FLAG-tagged catalytic mutant caspase-6 (C163A) (enzyme, UniProt P55212 1-293, looked up, FLAG tag present; also called C6) MSSASGLRRGHPAGGEENMTETDAFYKREMFDPAEKYKMDHRRRGIALIFNHERFFWHLTLPERRGTCADRDNLTRRFSDLGFEVKCFNDLKAEELLLKIHEVSTVSHADADCFVCVFLSHGEGNHIYAYDAKIEIQTLTGLFKGDKCHSLVGKPKIFIIQAARGNQHDVPVIPLDVVDNQTEKLDTNITEVDAASVYTLPAGADFLMCYSVAEGYYSHRETVNGSWYIQDLCEMLGKYGSSLEFTELLTLVNRKVSQRRVDFCKDPSAIGKKQVPCFASMLTKKLHFFPKSN	1.2		

More lines, now with the values ahead:

quantitative densitometry intensity of co-immunoprecipitated APP [1]	binding result [2]	intensity relative to the other caspases tested [3] [%]	Binder
1.1			FLAG-tagged catalytic mutant caspase-9 (C287A) (enzyme, UniProt P55211 1-416, looked up, FLAG tag present; also called C9) MDEADRRLLRRCRLRLVEELQVDQLWDALLSRELFRPHMIEDIQRAGSGSRRDQARQLIIDLETRGSQALPLFISCLEDTGQDMLASFLRTNRQAAKLSKPTLENLTPVVLRPEIRKPEVLRPETPRPVDIGSGGFGDVGALESLRGNADLAYILSMEPCGHCLIINNVNFCRESGLRTRTGSNIDCEKLRRRFSSLHFMVEVKGDLTAKKMVLALLELAQQDHGALDCCVVVILSHGCQASHLQFPGAVYGTDGCPVSVEKIVNIFNGTSCPSLGGKPKLFFIQAAGGEQKDHGFEVASTSPEDESPGSNPEPDATPFQEGLRTFDQLDAISSLPTPSDIFVSYSTFPGFVSWRDPKSGSWYVETLDDIFEQWAHSEDLQSLLLRVANAVSVKGIYKQMPGCFNFLRKKLFFKTS
2.2	no binding	~200	FLAG-tagged catalytic mutant caspase-8 (C360A) (enzyme, UniProt Q14790 1-479, looked up, Printed as 'caspase-S(C360A)', read as caspase-8; FLAG tag present; also called C8; caspase-S(C360A)) MDFSRNLYDIGEQLDSEDLASLKFLSLDYIPQRKQEPIKDALMLFQRLQEKRMLEESNLSFLKELLFRINRLDLLITYLNTRKEEMERELQTPGRAQISAYRVMLYQISEEVSRSELRSFKFLLQEEISKCKLDDDMNLLDIFIEMEKRVILGEGKLDILKRVCAQINKSLLKIINDYEEFSKERSSSLEGSPDEFSNGEELCGVMTISDSPREQDSESQTLDKVYQMKSKPRGYCLIINNHNFAKAREKVPKLHSIRDRNGTHLDAGALTTTFEELHFEIKPHDDCTVEQIYEILKIYQLMDHSNMDCFICCILSHGDKGIIYGTDGQEAPIYELTSQFTGLKCPSLAGKPKVFFIQAAQGDNYQKGIPVETDSEEQPYLEMDLSSPQTRYIPDEADFLLGMATVNNCVSYRNPAEGTWYIQSLCQSLRERCPRGDDILTILTEVNYEVSNKDDKKNMGKQMPQPTFTLRKKLVFPSD
